Data as given in patent US20250320281A1 (published 2025).
Residue numbers refer to the chain shown, from its start.

B1: 1495_C14 (PGC14) (antibody, human IgG1, lambda, V domains shown)
VH: DGHLVQSGVEVKKTGATVKISCKVSGYSFIDYYLHWVQRAPGKGLEWVGLIDPENGEARYAEKFQGRVTIIADTSIDTGYMEMRSLKSEDTAVYFCAAGAVGADSGSWFDPWGQGTLVTVSS
VL: SYELTQPPSVSVSPGQTASITCSGSKLGDKYVSWYQLRPGQSPILVMYENDRRPSGIPERFSGSNSGDTATLTISGTQALDEADFYCQAWETTTTTFVFFGGGTQLTVLG
B2: 1496_C09 (PG9) (TCN-109) (antibody, V domains shown)
VH: QRLVESGGGVVQPGSSLRLSCAASGFDFSRQGMHWVRQAPGQGLEWVAFIKYDGSEKYHADSVWGRLSISRDNSKDTLYLQMNSLRVEDTATYFCVREAGGPDYRNGYNYYDFYDGYYNYHYMDVWGKGTTVTVSS
VL: QSALTQPASVSGSPGQSITISCNGTSNDVGGYESVSWYQQHPGKAPKVVIYDVSKRPSGVSNRFSGSKSGNTASLTISGLQAEDEGDYYCKSLTSTRRRVFGTGTKLTVLG
B3: 1460_G14 (PGG14) (antibody, human IgG1, kappa, V domains shown)
VH: QVLLVQSGTEVKKPGSSVKVSCQASGGAFSSYAFSWVRQAPGQGLEWMGMITPVFGETKYAPRFQGRLTLTAEESLSTTYMELRSLTSDDTAFYYCTRDRRVVPMATDNWLDPWGQGTLVTVSS
VL: DIQLTQSPSSLSASVGDRVTVTCRASQTIHTYLNWYQQIPGKAPKLLIYGASTLQSGVPSRFSGSGSGTDFTLTINSLQPEDFATYYCQQSYSTPRTFGQGTRLDIKR
B4: 1460_G14 (PGG14) (antibody, human IgG1, kappa, V domains shown)
VH: B3 VH
VL: B3 VL
B5: 1456_P20 (PG20) (antibody, human IgG1, kappa, V domains shown)
VH: QVRLVQSGPEVKKPGSSVTVSCQASGGTFSSYAFTWVRQAPGQGLEWLGMVTPIFGEAKYSQRFEGRVTITADESTSTTSIELRGLTSEDTAIYYCARDRRAVPIATDNWLDPWGQGTLVTVSS
VL: B3 VL with T20S, V21I, H30N, T31N, I39T, T53N, S56N, N76S, Y92F
B6: 1443_C16 (PG16) (TCN-116) (antibody, V domains shown)
VH: QEQLVESGGGVVQPGGSLRLSCLASGFTFHKYGMHWVRQAPGKGLEWVALISDDGMRKYHSDSMWGRVTISRDNSKNTLYLQFSSLKVEDTAMFFCAREAGGPIWHDDVKYYDFNDGYYNYHYMDVWGKGTTVTVSS
VL: QSALTQPASVSGSPGQTITISCNGTSSDVGGFDSVSWYQQSPGKAPKVMVFDVSHRPSGISNRFSGSKSGNTASLTISGLHIEDEGDYFCSSLTDRSHRIFGGGTKVTVLG

Legend:
Assay in all cases: cell-based or functional assay
[1] = target: HIV-1 CMU02 Env (pseudovirus) (HIV-1 isolate CMU02)
[2] = target: HIV-1 92BR020 Env (pseudovirus) (HIV-1 isolate 92BR020)
[3] = target: HIV-1 APV-13 Env (pseudovirus) (HIV-1 isolate APV-13)
[4] = target: HIV-1 92TH021 Env (pseudovirus) (HIV-1 isolate 92TH021)
[5] = target: HIV-1 92RW020 Env (pseudovirus) (HIV-1 isolate 92RW020)
[6] = target: HIV-1 93IN905 Env (pseudovirus) (HIV-1 isolate 93IN905)
[7] = target: HIV-1 IAVI-C22 Env (pseudovirus) (HIV-1 isolate IAVI-C22)
[8] = target: HIV-1 93UG077 Env (pseudovirus) (HIV-1 isolate 93UG077)
[9] = target: HIV-1 APV-17 Env (pseudovirus) (HIV-1 isolate APV-17)
[10] = target: HIV-1 92UG005 Env (pseudovirus) (HIV-1 isolate 92UG005)
[11] = target: HIV-1 IAVI-C3 Env (pseudovirus) (HIV-1 isolate IAVI-C3)
[12] = target: HIV-1 IAVI-C18 Env (pseudovirus) (HIV-1 isolate IAVI-C18)
[13] = target: HIV-1 94UG103 Env (pseudovirus) (HIV-1 isolate 94UG103)
[14] = target: HIV-1 APV-6 Env (pseudovirus) (HIV-1 isolate APV-6)
[15] = target: HIV-1 92UG024 Env (pseudovirus) (HIV-1 isolate 92UG024)
[16] = target: HIV-1 92TH021 Env on pseudotyped virus (HIV-1 isolate 92TH021)
[17] = target: HIV-1 NL43 Env on pseudotyped virus (HIV-1 NL43)
[18] = target: HIV-1 94UG103 Env on pseudotyped virus (HIV-1 isolate 94UG103)
[19] = target: HIV-1 93IN905 Env on pseudotyped virus (HIV-1 isolate 93IN905)
[20] = target: HIV-1 IAVI_C22 Env on pseudotyped virus (HIV-1 isolate IAVI_C22)
[21] = target: HIV-1 92BR020 Env on pseudotyped virus (HIV-1 isolate 92BR020)
[22] = target: HIV-1 SF162 Env on pseudotyped virus (HIV-1 isolate SF162)

Row | Binder | IC50 (µg/mL), pseudovirus neutralization [1] [µg/mL] | IC50 (µg/mL), pseudovirus neutralization [2] [µg/mL] | IC50 (µg/mL), pseudovirus neutralization [3] [µg/mL] | IC50 (µg/mL), pseudovirus neutralization [4] [µg/mL] | IC50 (µg/mL), pseudovirus neutralization [5] [µg/mL] | IC50 (µg/mL), pseudovirus neutralization [6] [µg/mL] | IC50 (µg/mL), pseudovirus neutralization [7] [µg/mL] | IC50 (µg/mL), pseudovirus neutralization [8] [µg/mL] | IC50 (µg/mL), pseudovirus neutralization [9] [µg/mL] | IC50 (µg/mL), pseudovirus neutralization [10] [µg/mL] | IC50 (µg/mL), pseudovirus neutralization [11] [µg/mL] | IC50 (µg/mL), pseudovirus neutralization [12] [µg/mL] | IC50 (µg/mL), pseudovirus neutralization [13] [µg/mL] | IC50 (µg/mL), pseudovirus neutralization [14] [µg/mL] | IC50 (µg/mL), pseudovirus neutralization [15] [µg/mL] | other results
1 | B1 | > 50 | 0.64 | > 50 | > 50 | 28.6 | > 50 | > 50 | > 50 | > 50 | > 50 | 9.5 | > 50 | > 50 | 7.41 | > 50 | –
2 | B2 | > 50 | > 50 | > 50 | – | 0.06 | – | – | > 50 | 26.4 | > 50 | 12.9 | 0.05 | 0.17 | 0.09 | – | –
3 | B3 | > 50 | > 50 | > 50 | > 50 | > 50 | > 50 | > 50 | > 50 | > 50 | > 50 | > 50 | > 50 | > 50 | > 50 | > 50 | –
4 | B4 | – | – | – | – | – | – | – | – | – | – | – | – | – | – | – | Neutralizing Antibody Assay: IC50; Virus/Ab Incubation 1 hour [16]: > 50 µg/mL; Neutralizing Antibody Assay: IC50; Virus/Ab Incubation 18 hour [16]: > 50 µg/mL; Neutralizing Antibody Assay: IC50; Virus/Ab Incubation 1 hour [17]: 0.17 µg/mL; Neutralizing Antibody Assay: IC50; Virus/Ab Incubation 18 hour [17]: 0.05 µg/mL; Neutralizing Antibody Assay: IC50; Virus/Ab Incubation 1 hour [18]: > 50 µg/mL; Neutralizing Antibody Assay: IC50; Virus/Ab Incubation 18 hour [18]: > 50 µg/mL; Neutralizing Antibody Assay: IC50; Virus/Ab Incubation 1 hour [19]: > 50 µg/mL; Neutralizing Antibody Assay: IC50; Virus/Ab Incubation 18 hour [19]: 3.17 µg/mL; Neutralizing Antibody Assay: IC50; Virus/Ab Incubation 1 hour [20]: > 50 µg/mL; Neutralizing Antibody Assay: IC50; Virus/Ab Incubation 18 hour [20]: > 50 µg/mL; Neutralizing Antibody Assay: IC50; Virus/Ab Incubation 1 hour [21]: > 50 µg/mL; Neutralizing Antibody Assay: IC50; Virus/Ab Incubation 18 hour [21]: > 50 µg/mL; Neutralizing Antibody Assay: IC50; Virus/Ab Incubation 1 hour [22]: 0.179 µg/mL; Neutralizing Antibody Assay: IC50; Virus/Ab Incubation 18 hour [22]: 0.0573 µg/mL
5 | B5 | > 50 | > 50 | > 50 | > 50 | 50 | > 50 | > 50 | > 50 | > 50 | > 50 | > 50 | > 50 | > 50 | 25.8 | > 50 | –
6 | B6 | > 50 | > 50 | > 50 | 0.13 | 0.004 | 0.1 | 0.069 | > 50 | > 50 | > 50 | 14.8 | 0.007 | 0.008 | 0.08 | > 50 | –
